Experimental data reported in US20140056960A1, “Methods for Improving Fracture Healing and Bone Formation” (Imperial Innovations Limited, priority 2010, published 2014).
“Also recorded” adds a separate entry of the source.

Key:
tibial fracture = assay: murine tibial fracture model: callus mineralization (microCT) and histology after local administration at fracture site; type: in vivo, mouse; settings: exogenous alarmin at fracture site days 0 and 1 (rmHMGB1 20 μL at 50 ng/ml); day 28 microCT
Procedure: Percentage callus mineralization was determined from the fracture site to 1 mm proximally (mean+/−SEM). FIG. 5. Dose response of exogenous TNF-α in vivo. 20 μL of PBS with rhTNF-α at the corresponding dose was injected at the fracture site at days 0 and 1 in C57BI/6 mice. At day 28, mice were harvested and limbs scanned by microCT in a blinded fashion. Percentage callus mineralization was determined from the fracture site to 1 mm proximally (threshold density of 350 mg/cm^3). * p<0.05, ** p<0.01. FIG. 7A. […] Percentage callus mineralization was determined from the fracture site to 1 mm proximally (mean+/−SEM). FIG. 18. […] C57BI6 mice were subjected to fracture model with addition of 20 μL of rmHMGB1 at 50 ng/ml at the fracture site at days 0 and 1 compared to controls. Addition of exogenous S100A8 or S100A9 or S100A8/9 had no effect, possibly because the fracture environment may already contain optimal amounts of S100 A8 or A9 proteins. All mice were harvested at day 28 and limbs scanned by microCT in a blinded fashion. Percentage callus mineralization was determined from the fracture site to 1 mm proximally (mean+/−SEM). […] Inflammation plays a vital role in early fracture repair^11,12. In murine models, TNF-α, IL-1 and IL-6 are expressed at the fracture site within 24 hours of injury^13,14. Biphasic expression of TNF-α and IL-1β appears to be linked to the initiation of fracture repair and later to endochondral maturation^14,15. In our murine model, callus mineralization at day 28 was enhanced when TNF-α, at a concentration of 50 ng/kg was injected locally following injury (day 0) and 24 hours later.

PBMCs [1] = assay: IL-6 and IL-1β production by PBMCs stimulated with S100 A8 (ELISA); type: cell-based, human; settings: S100 A8 0.5 μg/ml with antibody to TLR4, TLR2 or sRAGE, 14 hours
Procedure: FIG. 13. […] PBMCs at 1*10^5/ml were incubated in 10% FCS with S100 A8 0.5 μg/ml with the addition of either antibody to TLR4, TLR2 or isotype controls, or sRAGE over 14 hours. IL-6 (A) and […] (B) levels were determined by ELISA.

[2] = tested on: muscle derived stromal cells (MDSCs); assay: osteogenic activity of supernatant from stimulated PBMCs: alkaline phosphatase in MDSCs over 7 d; type: cell-based, human; settings: S100 A8 at indicated doses (μg/ml) or LPS 10 ng/ml; MDSCs 7 d
Procedure: FIG. 15. Supernatant from PBMCs stimulated with S100A8 but not LPS is osteogenic. PBMCs at 1*10^5/ml were stimulated with S100 A8 at indicated doses (μg/ml), or LPS at 10 ng/ml. The supernatants were harvested and filter-sterilised through a 0.2 μm filter. MDSCs were cultured in this S100 A8-stimulated supernatant over 7 d and alkaline phosphatase levels quantified.
FIG. 16. Osteogenic activity of supernatant from human monocytes exposed to varying doses of LPS.

PBMCs [3] = assay: TNF-α production by PBMCs (ELISA, 14 hours); type: cell-based, human; settings: PBMCs 1*10^5/ml, 10% FCS, alarmin at indicated doses
Procedure: FIG. 10. […] (A) PBMCs at 1*10^5/ml were incubated in 10% fetal calf serum (FCS) with S100 A8 at indicated doses. […] (B) PBMCs at 1*10^5/ml were incubated in 10% FCS with S100 A8 at 0.5 μg/ml with the addition of either antibody to TLR4, TLR2 or isotype controls (not shown), or sRAGE over 14 hours. TNF-α levels were determined by ELISA.
FIG. 12. […] PBMCs at 1*10^5/ml were incubated in 10% FCS with S100 A8, S100 A9 or S100 A12 at the indicated doses over 14 hours. TNF-α levels were determined by ELISA.
FIG. 17. […] PBMCs at 1*10^5/ml were incubated in 10% FCS with HMGB1 or LPS at the indicated doses over 14 hours; TNF-α levels were determined by ELISA.

B1: S100A8: alarmin; rhS100A8 added to human PBMCs (protein, UniProt P05109 1-93, looked up)
Protein S100-A8: MLTELEKALNSIIDVYHKYSLIKGNFHAVYRDDLKKLLETECPQYIRKKGADVWFKELDINTDGAVNFQEFLILVIKMGVAAHKKSHEESHKE
Tibial fracture
  fracture healing / percentage callus mineralization: no effect
PBMCs [1]
  receptor dependence of IL-6 and IL-1β production: produced by monocytes via TLR4 and also RAGE, but not TLR2
[2]
  osteogenic activity of stimulated PBMC supernatant (alkaline phosphatase): led to osteogenesis; also recorded: osteogenic
PBMCs [3]; listed as S100 A8
  TNF-α production by PBMCs: stimulates monocytes to produce TNF-α in a dose dependent manner; also recorded: dose-dependent increase in TNF-α production
PBMCs [3]; listed as rhS100A8
  TNF-α production by PBMCs: resulted in production of TNF-α
